The values below come from patent US20170320960A1 (AbbVie / Abbott, published 2017).

Like-named read-outs stand apart in the source and are kept apart here.

In assay [1] the target is T1, hMFI2 Tf-like Domain 1 (TLD1), amino acids 20-357, displayed on yeast (human, UniProt P08582 20-357).
T1 construct: also called TFLD1
T1 sequence: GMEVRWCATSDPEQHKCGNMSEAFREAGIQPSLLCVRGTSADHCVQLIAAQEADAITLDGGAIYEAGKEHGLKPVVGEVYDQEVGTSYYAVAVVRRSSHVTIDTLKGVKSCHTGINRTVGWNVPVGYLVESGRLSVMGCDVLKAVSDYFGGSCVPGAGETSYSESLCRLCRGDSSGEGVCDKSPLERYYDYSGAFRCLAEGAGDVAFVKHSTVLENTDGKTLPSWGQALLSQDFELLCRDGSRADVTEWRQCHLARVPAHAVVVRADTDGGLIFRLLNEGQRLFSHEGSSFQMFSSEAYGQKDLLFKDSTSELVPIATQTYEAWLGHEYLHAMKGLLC
Briefly: flow cytometry on yeast displaying hMFI2 domains. For orientation: A flow cytometer gives signals particle by particle.

Assay [2] addresses T1, hMFI2 Tf-like Domain 1 (TLD1), amino …. Briefly: flow cytometry on yeast displaying hMFI2 domains. This is another data set of the same source.

B1: SC57.27 (antibody, V domains shown)
VH: ELKLVESGGDLVKPGGSLKLSCAASGFSFNNYAMSWVRQTPEKRLEWVASISSGGTTFYPDSVKGRFTMSRDHARNILYLQMNSLRSEDTAMYYCVRGQWLSLYSMDYWGQGTSVTVSS
VL: DIQMTQSPVSLSASVGETVTITCRASEIIYSYLAWYQQKQGKSPQLLVYNAKTLAEGVPSRFSGSGSGTQFSLKINSLQPEDFGTYYCQHHYGVPVTFGAGTKLELK
B1: in assay [1], the binding result is reported as “binds”.

B2: SC57.7 (antibody, V domains shown)
VH: GVQVVESGGGVVQPGGSLKLSCAASGFTFSSYAMSWVRQTPEKRLEWVAYLSRGGGSTYYLDTVKGRFTISRDNAKNTLYLQMNSLKSEDTAMYYCARLDGYNWYFDVWGAGTPVTVSS
VL: DIVMSQSPSSLAVSAGEKVTMSCKSSQSLLHSRIRKNYLAWYQQKPGQSPKLLIYWASTRESGVPDRFTGSGSGTDFTLTISSVQAEDLAVYYCKQSYNLFTFGGGTKLEIK
With B2, the binding result in assay [1] was “binds”.

B3: SC57.48 (antibody, V domains shown)
VH: GVQVVESGGGVVQPGGSLKLSCAASGFTFSSYAMSWVRQTPEKRLEWVAYLSRGGGSTYYLDTVKGRFTISRDNAKNTLYLQMNSLKSEDTAMYYCARLDGYNWYFDVWGAGTPVTVSS
VL: DIVMSQSPSSLAVSAGEKVTMSCKSSQSLLHSRIRKNYLAWYQQKPGQSPKLLIYWASTRESGVPDRFTGSGSGTDFTLTISSVQAEDLAVYYCKQSYNLFTFGGGTKLEIK
Regarding B3, the binding result in assay [2] is “binds”.

B4: SC57.1 (antibody, V domains shown)
VH: QVQLKQSGPGLVQPSQSLSITCTVSGFSLTDYGVHWVRQSPGKGLDWLGVIWSGGNTDYNAAFISRLSISKDNSKSQIFFEMNSLQDTDTAIYYCARQLHYYGPFAYWGQGTLVTVSA
VL: QIVLTQSPAIMSASPGEKVTMTCSASSSVSYMHWYQQKSGTSPKRWIYDTSKLASGVPVRFSGSGSGTSYSLTISSIEADDAATYYCQQWSRTPPTFGGGTKLEIK
For the molecule B4, in assay [1], the binding result is “binds”.

B5: SC57.2 (antibody, V domains shown)
VH: QVQLKQSGPGLVQPSQSLSITCTVSGFSLTDYGVHWVRQSPGKGLDWLGVIWSGGNTDYNAAFISRLSISKDNSKSQIFFEMNSLQDTDTAIYYCARQLHYYGPFAYWGQGTLVTVSA
VL: QIVLTQSPAIMSASPGEKVTMTCSASSSVSYMHWYQQKSGTSPKRWIYDTSKLASGVPVRFSGSGSGTSYSLTISSIEADDAATYYCQQWSRTPPTFGGGTKLEIK
On to B5, for which, in assay [1], the binding result was “binds”.
